From article PMC10248529

Key:
[1] = target: HAx3-tagged Cho1 (phosphatidylserine synthase from Candida albicans) (Candida albicans); test: native gel or EMSA; BN-PAGE and anti-HA Western blot of SMA2000-solubilised membrane fractions (SMALPs), 1-4% SMA2000, 30 or 60 min, 37 °C
[2] = target: HAx3-tagged Cho1 (phosphatidylserine synthase from Candida albicans) (Candida albicans); test: native gel or EMSA; BN-PAGE and anti-HA Western blot of Cho1-HAx3 pulled down with anti-HA beads and eluted harshly: 50 mM NaOH + 0.05% digitonin, then 1 M Tris pH 8.5

Substance “HAx3-tagged Cho1 (phosphatidylserine synthase from Candida albicans) (from UniProt A0A1D8PF32 1-273) (enzyme)” has a stoichiometry N [1] of 2 and a stoichiometry N [2] of 2.
